Our source for the RSV Neutralization - IC50 values is patent US20260028391A1.

B1: MPK180 (antibody, V domains shown)
VH: QVQLVQSGAEVKKPGESLRISCKASGYSFASYWIGWVRQKPGKGPEWMGIIFPNDSDTEYSPSFEGQVSISADKSTSTVHLQWGSLKASDTAVYYCGRMYYLGALETWGQGTMVTVSS
VL: AIRMTQSPSSLSASVGDRVTIVCQASHDISNFLNWYQQRPGQAPKLLIYDASFLETGVPSRFSGSGSGTYFTLTISSLQPEDFATYYCQRYDNRFFTFGPGTKVDIK
B2: MPK203 (antibody, V domains shown)
VH: EVQLVQSGPQVKKPGAAVKVSCKASGFTFTDTTVNWVRQTRGQRLEWMGWIAVGSGTTNYAQKFRDRVTISRDTSTDTAYMELGGLTHDDTAVYYCTTEASRTWFVQTSPFVGFDPWGQGTLVTVSS
VL: EIVLTQSPGTLSLSPGERATLSCRASQSVSSSYFAWYQQKPGQTPRVLIYGASNRAPDIPDRFSGSGSGTDFILTISRLEPEDFAIYYCQHYGSSPTFGQGTKVEIK
B3: MPK161-v1 (antibody, V domains shown)
VH: EVQLVQSGVEAKKPGESLKISCRASGYSFVNFWIGWVRQVPGKGLEWMGFIYPFDSDTKYGPSFEGHVIISADKSTNTAYLEWRSLRASDSAMYYCARFTFGIALVAGDVTGGGQAFEVWGQGTLVSVSS
VL: AIWMTQSPSTLSASVGDRVTVTCRASLSIGTWLAWYQHKPGKAPKFLIYKASSLESGVPSRFSGSGSGTEFTLTISSLQPDDFATYYCQQYDSYPFTFGGGTKVEIK
B4: MPK161-v2 (antibody, V domains shown)
VH: B3 VH
VL: EIVMMQSPATLSVSPGDRATLSCRASQSVAGNLAWYQQRPGQAPRLLIYAASTRATGVPARFSGSGSETEFTLTISSLQSEDFAVYYCHHYSNWPQAFGQGTRLDIK
B5: MPK194-v2 (antibody, V domains shown)
VH: QVQLVESGGGVVQPGRSLRLSCVASGFTFSNYPLHWVRQAPGKGLQWVAVISYDGSENYYADSVKGRFTISRDNSKSTLYLQMNSLRPEDTAIYYCARSKVAGGSYYFDYWGQGTLVPVSS
VL: SYELTQPPSVSVAPGQAARVSCGGNNIGSQYVQWYQQKPGQAPVLVIYDDDDRPSGIPERFSGSNSGSTATLTISRVEAGDEADYYCQVWDKSNHVVVFGGGTKLTVL
B6: MPK176 (antibody, V domains shown)
VH: QVQLVQSGAEVKKPGASVRVSCKASGYTLTAYGISWVRQAPGQGLEWMGWISPKHGNTHYAQRFQGRVTMTTDTSTSTAYMELRSLRPDDTAVYFCAREGVDIMAVPWYFDYWGQGTLVAVSS
VL: SYELTQPPSVSVAPGQTARISCGGNNIGSKSVHWYQQKPGQAPVVVVYDDSDRPSGIPERFSGSNSGNTATLTISGVEAGDEADYFCQVWDSATDHWVFGGGTKLTVL
B7: MPK170 (antibody, V domains shown)
VH: QVQLVQSGAEVKKPGESLKISCKGSGYSFINYWIGWVRQMPGKGLEWMGIIYPFDSDTKYSPSFQGHVTISADKSINTAYVQWSSLKASDTAIYYCARFTFGIAVSTDDVSGEGQAFDLWGQGTRVTVSS
VL: B4 VL with D17E, A51G, T53A
B8: MPK168 (antibody, V domains shown)
VH: EVQLVQSGAEVKKPGESLKISCQVSGYSFVNYWIGWVRQVPGKGLEWMGLIYPFDSDTQYSPSFQGHVTISADTSITTAYLQWSSLQASDTATYYCARFTFGLALVTAGLTDDGQAFDFWGQGTVVTVSS
VL: EIVMMQSPATLSVSPGERATLSCRATESVAGKLAWYQQRPGQTPRLLIYGASARATGVPARFSGSGSETEFTLTISSLQSEDFAVYYCQQYSTWPHAFGQGTRLDIK
B9: MPK175 (antibody, V domains shown)
VH: QVQLVQSGAEVKKPGESLKISCQASGYSFINYWIGWVRQKPGKGLEWMGIIYPFDSETKYSPSFQGHVTISADRFTNTAYVQWTSLKASDTAIYYCARFTFGLAVVAGGLSDDGQAFDIWGQGTRVTVSS
VL: B4 VL with M4L, M5T, D17E, G31A, A43T, A50G, S80P, N93D
B10: MPK178 (antibody, V domains shown)
VH: EVQLVQSGAEVKKPGESLKISCRASGYSFVNYWIGWVRQVPGKGLEWMGFIYPFDSDTQYSPSFQGHVTISADKSINTAYLQWSSLRASDTAIYYCARFTFGIALVAGDVTGGGQAFEVWGQGTLVSVSS
VL: B4 VL with E1D, M5T, A9V, D17E
B11: MPK186 (antibody, V domains shown)
VH: B7 VH with K23Q, D57E, I93M, S106V, S111Y, G114A, A116G, L119I, R125M
VL: B4 VL with E1D, M5T, S7T, D17E, A30D, A50G, H89Q
B12: MPK165 (antibody, V domains shown)
VH: B10 VH with V30N, I34V, Q59K, Q65E, N77D, A88S, S127T
VL: B4 VL with M5T, D17E, N32K, L47I, T56A
B13: MPK198 (antibody, V domains shown)
VH: B7 VH with Q1E, I93M, S106V, L119I, R125M
VL: B4 VL with D17E, A50G, H89Q, H90Q
B14: MPK189 (antibody, V domains shown)
VH: B7 VH with I93M, S106V, G112D, Q115H, L119I, R125M
VL: B4 VL with D17E, A50G, H89Q, H90Q
B15: MPK188 (antibody, V domains shown)
VH: EVQLVQSGAEVKKPGESLKISCQASGYSFINYWIGWVRQMPGKGLEWMGIIYPFDSDTNYSPSFQGLVTISADKSINTAYLQWRSLKASDTAMYYCARFTFGIALVAGDVNGEGHAFDIWGQGTVVTVSS
VL: B4 VL with M5T, D17E, R18S, S28G, A50G, A51T
B16: MPK171-v2 (antibody, V domains shown)
VH: B7 VH with I93M, S106V, Q115H, L119I, R125M
VL: B4 VL with E1Q, I2S, M4L, M5T, D17E, A50G, H89Q, H90Q
B17: MPK193 (antibody, V domains shown)
VH: EVQLVQSGAEVKKPGESLKISCEASGYSFNNYWIGWVRQMPGKGLEWMGIIYPFDSDTKYSPSFQGHVTISADKSINTAYLQWSSLKASDTAMYFCARFTFGIVLVAGDVTGEGHAFDVWGRGTMVTVTS
VL: B4 VL with A9V, D17G, A50G
B18: MPK187 (antibody, V domains shown)
VH: QVQLVQSGAEVKKPGASVKVSCKTSGYYFNDYFIHWVRHAPGQGLEWMGWVNPLSGATVYAQKFQGWVTLTRDTSINTAYMELTRLTSNDTAMYYCATGALFWTGPTYWGQGTPVTVSA
VL: EIVLTQSPATLSLFPGERATLSCRTSQFVSNNLAWYQQRPGQAPRLLIYDASSRASGTPGRFSASGSGTDFTLTVSSLETEDFAIYYCQHRSNWPPGITFGPGTRVDIR
B19: MPK197 (antibody, V domains shown)
VH: B18 VH with M93L
VL: B18 VL with L4M, T5M, F14S, T25A, F28S, V29I, R39K, P40T, I108V
B20: MPK173 (antibody, V domains shown)
VH: QVQLVQSGAEVRKPGASVKVSCRASGYTFSNFGITWVRQAPGQGLEWMGWISAYNGNTKSAQKFQDRVTMTTDTTTSTAYMELRSLRSDDTAVYYCARDTPSSDGAALLDYWGQGTLVTVSS
VL: DIVMTQTPLSLPVTLGQPASISCRSSQSLVYSDGNTYLSWFQQRPGQSPRRLIYKVSNRDSGVPDRFSGSGSGTYFTLKINRVEAEDVGVYYCMQSKYWLTFGQGTKVEIK
B21: MPK163 (antibody, V domains shown)
VH: EVQLVQSGAEVKKPGESLKMSCKTSGYSFRSYWIAWVRQRPGKGLEWMGIIWPGDSDVRYGPSFQGQVTISADRSTNTAYLQWSSLKASDTAIYWCARQNYDFWSGHSLGTGADYYYGMDVWGQGTTVTVSS
VL: SSELTQPPSASGTPGQRVTISCSGSSSNIGRNIVHWYQHVPGTAPKLLIYNNDERPSGVPDRFSGSKSGTSASLAISGLQSEDEADYYCTVWDDSLNGGVFGGGTKVTVL
B22: MPK179-v4 (antibody, V domains shown)
VH: QVQLVQSRAEVKKPGESLKISCRASGYSFINYWIGWVRQMPGKGLEWMGIIYPFDSDTKYSPSFEGHVTISADKSINTAYVQWSSLKASDTAIYYCARFTFGIALVAGDVGGEGHAFDIWGQGTLVTVSS
VL: DIVMTQSPSSLSASVGDRVTITCRASQTISTYLNWYQQKPGKAPKLLIYAASRLQSGVPSRFSGSGSGTDFTLTISSLQPEDFATYFCQQSYNAPPFTFGPGTKVDIR

Numbering of substitutions follows the chain as printed.

The target in this test is fusion glycoprotein of the RSV used in the neutralization assay of Example 1 (respiratory syncytial virus (strain not stated)). Briefly: cell-based or functional assay.
The molecule B1 had an RSV Neutralization - IC50 of 1.5 ng/mL. Turning to B2, the RSV Neutralization - IC50 is 2 ng/mL. B3 came in with an RSV Neutralization - IC50 of 2.8 ng/mL. The figure for B4 is 1.1 ng/mL; for B5 it is 2.6 ng/mL.

B6 showed an RSV Neutralization - IC50 of 4.2 ng/mL. On to B7, for which the RSV Neutralization - IC50 amounted to 1.1 ng/mL.

For B8, the RSV Neutralization - IC50 worked out at 1.3 ng/mL. B9: the RSV Neutralization - IC50 was 1.6 ng/mL. In the case of B10 it was 1 ng/mL; in that of B11, 1.2 ng/mL. The figure for B12 is 1 ng/mL. For the molecule B13, the RSV Neutralization - IC50 was 1.2 ng/mL.

Regarding B14, the RSV Neutralization - IC50 came to 1.2 ng/mL. The figure for B15 is 1 ng/mL. On to B16, for which the RSV Neutralization - IC50 is 1 ng/mL. Take B17: the RSV Neutralization - IC50 turned out to be 1 ng/mL.

Molecule B18 came in with an RSV Neutralization - IC50 of 9.1 ng/mL. As to B19, the RSV Neutralization - IC50 is 14.7 ng/mL. B20: the RSV Neutralization - IC50 worked out at 10.2 ng/mL. On to B21, for which the RSV Neutralization - IC50 came out at 1.4 ng/mL. The molecule B22 came in with an RSV Neutralization - IC50 of 6.6 ng/mL.
